Reference: PMC2213055 (The Journal of Experimental Medicine, 2005)

Key:
[1] = target: MSH2–MSH3 heterodimer (human, UniProt P43246 1-934; P20585 1-1137); experiment: ELISA
[2] = target: MSH2–MSH6 heterodimer (human, UniProt P43246 1-934; P52701 1-1360); experiment: ELISA
Sequence of MSH2–MSH6 heterodimer (P43246 whole entry, chain 1 of 2): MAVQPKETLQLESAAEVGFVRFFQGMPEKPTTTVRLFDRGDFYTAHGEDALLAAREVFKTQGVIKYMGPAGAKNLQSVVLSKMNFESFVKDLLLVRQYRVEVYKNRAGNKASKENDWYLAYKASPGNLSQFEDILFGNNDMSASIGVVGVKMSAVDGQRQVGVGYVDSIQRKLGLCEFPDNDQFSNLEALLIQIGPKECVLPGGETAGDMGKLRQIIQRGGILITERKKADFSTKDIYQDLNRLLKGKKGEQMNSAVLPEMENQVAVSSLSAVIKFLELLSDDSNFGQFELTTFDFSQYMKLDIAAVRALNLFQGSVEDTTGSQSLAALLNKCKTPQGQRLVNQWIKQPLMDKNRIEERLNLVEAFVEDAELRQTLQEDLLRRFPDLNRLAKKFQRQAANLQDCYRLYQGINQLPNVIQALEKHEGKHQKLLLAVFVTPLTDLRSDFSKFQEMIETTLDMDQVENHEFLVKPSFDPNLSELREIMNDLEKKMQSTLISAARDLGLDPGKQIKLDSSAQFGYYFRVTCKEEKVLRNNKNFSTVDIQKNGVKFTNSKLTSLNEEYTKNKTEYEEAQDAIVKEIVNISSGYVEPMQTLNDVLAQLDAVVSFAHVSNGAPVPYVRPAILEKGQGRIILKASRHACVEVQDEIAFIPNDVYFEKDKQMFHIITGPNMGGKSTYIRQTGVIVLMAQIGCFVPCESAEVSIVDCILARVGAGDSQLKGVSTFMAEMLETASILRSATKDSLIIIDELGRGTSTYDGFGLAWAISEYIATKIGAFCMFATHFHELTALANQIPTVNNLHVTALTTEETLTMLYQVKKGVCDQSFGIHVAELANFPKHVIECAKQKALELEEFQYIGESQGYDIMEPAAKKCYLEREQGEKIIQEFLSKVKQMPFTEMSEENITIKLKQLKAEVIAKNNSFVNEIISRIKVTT
Sequence of MSH2–MSH6 heterodimer (P52701 whole entry, chain 2 of 2): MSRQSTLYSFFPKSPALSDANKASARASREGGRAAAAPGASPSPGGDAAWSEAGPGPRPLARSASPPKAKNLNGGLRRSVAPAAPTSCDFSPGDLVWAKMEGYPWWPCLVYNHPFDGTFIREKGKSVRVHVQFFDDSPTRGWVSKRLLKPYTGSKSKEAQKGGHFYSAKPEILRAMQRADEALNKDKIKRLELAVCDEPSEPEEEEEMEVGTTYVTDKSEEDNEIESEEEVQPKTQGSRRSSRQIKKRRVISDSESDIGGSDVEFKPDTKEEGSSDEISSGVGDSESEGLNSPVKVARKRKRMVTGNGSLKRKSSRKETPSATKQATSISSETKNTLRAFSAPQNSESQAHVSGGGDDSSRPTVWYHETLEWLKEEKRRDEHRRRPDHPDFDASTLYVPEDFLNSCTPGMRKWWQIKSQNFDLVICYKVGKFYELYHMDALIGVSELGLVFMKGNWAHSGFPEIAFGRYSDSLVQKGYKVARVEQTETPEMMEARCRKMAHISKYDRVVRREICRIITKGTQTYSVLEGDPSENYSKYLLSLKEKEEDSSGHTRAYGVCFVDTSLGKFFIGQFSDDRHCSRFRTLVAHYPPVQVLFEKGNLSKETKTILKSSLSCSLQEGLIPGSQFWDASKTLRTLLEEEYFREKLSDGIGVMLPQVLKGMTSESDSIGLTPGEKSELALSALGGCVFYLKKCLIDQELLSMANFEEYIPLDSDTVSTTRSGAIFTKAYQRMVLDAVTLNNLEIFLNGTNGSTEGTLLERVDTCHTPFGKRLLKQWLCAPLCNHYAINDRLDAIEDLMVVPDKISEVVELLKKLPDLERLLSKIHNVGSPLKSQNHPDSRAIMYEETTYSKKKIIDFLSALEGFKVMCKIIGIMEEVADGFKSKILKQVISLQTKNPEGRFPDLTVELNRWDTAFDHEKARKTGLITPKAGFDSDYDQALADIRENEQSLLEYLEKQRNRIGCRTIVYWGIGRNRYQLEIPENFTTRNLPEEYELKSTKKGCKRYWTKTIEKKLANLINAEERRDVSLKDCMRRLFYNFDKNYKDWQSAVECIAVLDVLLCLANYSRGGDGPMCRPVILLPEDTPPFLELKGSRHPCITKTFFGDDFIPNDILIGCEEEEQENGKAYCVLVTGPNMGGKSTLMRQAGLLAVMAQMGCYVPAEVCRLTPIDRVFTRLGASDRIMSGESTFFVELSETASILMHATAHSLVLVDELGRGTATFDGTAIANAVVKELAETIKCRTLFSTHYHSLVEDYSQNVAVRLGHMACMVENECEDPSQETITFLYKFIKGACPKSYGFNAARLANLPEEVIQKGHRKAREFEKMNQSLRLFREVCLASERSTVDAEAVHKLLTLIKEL

Sequence of MSH2–MSH3 heterodimer (P43246 whole entry, chain 1 of 2): as the sequence (P43246 whole entry, chain 1 of 2) above
Sequence of MSH2–MSH3 heterodimer (P20585 whole entry, chain 2 of 2): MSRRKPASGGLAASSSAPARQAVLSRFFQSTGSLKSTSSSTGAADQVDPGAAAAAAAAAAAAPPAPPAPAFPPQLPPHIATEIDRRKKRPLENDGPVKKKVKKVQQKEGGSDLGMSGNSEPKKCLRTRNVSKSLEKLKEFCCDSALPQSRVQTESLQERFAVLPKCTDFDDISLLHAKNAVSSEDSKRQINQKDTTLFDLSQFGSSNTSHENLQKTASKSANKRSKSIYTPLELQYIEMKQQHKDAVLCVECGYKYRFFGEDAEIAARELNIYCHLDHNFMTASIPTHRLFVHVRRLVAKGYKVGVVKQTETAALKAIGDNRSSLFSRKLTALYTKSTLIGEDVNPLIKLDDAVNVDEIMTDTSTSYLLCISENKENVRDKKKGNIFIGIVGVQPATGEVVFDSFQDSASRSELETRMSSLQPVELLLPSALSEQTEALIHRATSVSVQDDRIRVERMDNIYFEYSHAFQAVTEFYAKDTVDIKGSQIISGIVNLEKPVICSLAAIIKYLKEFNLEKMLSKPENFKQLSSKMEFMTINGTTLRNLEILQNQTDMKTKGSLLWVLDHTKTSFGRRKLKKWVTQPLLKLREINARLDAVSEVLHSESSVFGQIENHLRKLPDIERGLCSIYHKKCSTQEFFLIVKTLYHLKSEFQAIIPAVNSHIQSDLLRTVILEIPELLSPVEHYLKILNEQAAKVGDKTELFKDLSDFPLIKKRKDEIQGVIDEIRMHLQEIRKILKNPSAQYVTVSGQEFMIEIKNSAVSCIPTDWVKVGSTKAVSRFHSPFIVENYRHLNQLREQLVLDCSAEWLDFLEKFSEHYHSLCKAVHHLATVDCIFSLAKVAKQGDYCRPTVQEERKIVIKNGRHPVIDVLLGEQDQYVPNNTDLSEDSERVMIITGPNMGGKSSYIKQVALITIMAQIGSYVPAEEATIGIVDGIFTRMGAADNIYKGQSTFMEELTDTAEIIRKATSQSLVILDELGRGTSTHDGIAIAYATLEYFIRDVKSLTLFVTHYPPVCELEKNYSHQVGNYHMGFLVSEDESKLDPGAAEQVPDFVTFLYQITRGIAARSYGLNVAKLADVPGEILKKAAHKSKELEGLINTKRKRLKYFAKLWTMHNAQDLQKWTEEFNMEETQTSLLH

Kd [1]: 7.4 ± 1 nM
Kd [2]: 6.5 ± 0.8 nM
B1: recombinant human DNA polymerase η, (His)6-tagged (enzyme, UniProt Q9Y253 1-713, looked up)
chain: MATGQDRVVALVDMDCFFVQVEQRQNPHLRNKPCAVVQYKSWKGGGIIAVSYEARAFGVTRSMWADDAKKLCPDLLLAQVRESRGKANLTKYREASVEVMEIMSRFAVIERASIDEAYVDLTSAVQERLQKLQGQPISADLLPSTYIEGLPQGPTTAEETVQKEGMRKQGLFQWLDSLQIDNLTSPDLQLTVGAVIVEEMRAAIERETGFQCSAGISHNKVLAKLACGLNKPNRQTLVSHGSVPQLFSQMPIRKIRSLGGKLGASVIEILGIEYMGELTQFTESQLQSHFGEKNGSWLYAMCRGIEHDPVKPRQLPKTIGCSKNFPGKTALATREQVQWWLLQLAQELEERLTKDRNDNDRVATQLVVSIRVQGDKRLSSLRRCCALTRYDAHKMSHDAFTVIKNCNTSGIQTEWSPPLTMLFLCATKFSASAPSSSTDITSFLSSDPSSLPKVPVTSSEAKTQGSGPAVTATKKATTSLESFFQKAAERQKVKEASLSSLTAPTQAPMSNSPSKPSLPFQTSQSTGTEPFFKQKSLLLKQKQLNNSSVSSPQQNPWSNCKALPNSLPTEYPGCVPVCEGVSKLEESSKATPAEMDLAHNSQSMHASSASKSVLEVTQKATPNPSLLAAEDQVPCEKCGSLVPVWDMPEHMDYHFALELQKSFLQPHSSNPQVVSAVSHQGKRNPKSPLACTNKRPRPEGMQTLESFFKPLTH
